Assay results published in patent US20110256140A1 (POMONA RICERCA S R L, published 2011).

Columns and labels:
Assay in all cases: binding of Fab e20 to H77 E1E2 alanine mutants; method not stated
H77 E1E2 mutant N417A = biological target: T1, H77 E1E2 mutant N417A (Hepatitis C virus genotype 1a, H77, UniProt P27958 384-746)
T1 construct: Co-expressed with E1; P27958 is the whole polyprotein

H77 E1E2 mutant H488A = biological target: T2, H77 E1E2 mutant H488A (Hepatitis C virus genotype 1a, H77, UniProt P27958 384-746)
T2 construct: Co-expressed with E1; P27958 is the whole polyprotein

H77 E1E2 mutant N532A = biological target: T3, H77 E1E2 mutant N532A (Hepatitis C virus genotype 1a, H77, UniProt P27958 384-746)
T3 construct: Co-expressed with E1; P27958 is the whole polyprotein

H77 E1E2 mutant F550A = biological target: T4, H77 E1E2 mutant F550A (Hepatitis C virus genotype 1a, H77, UniProt P27958 384-746)
T4 construct: Co-expressed with E1; P27958 is the whole polyprotein

H77 E1E2 mutant T534A = biological target: T5, H77 E1E2 mutant T534A (Hepatitis C virus genotype 1a, H77, UniProt P27958 384-746)
T5 construct: Co-expressed with E1; P27958 is the whole polyprotein

H77 E1E2 mutant W487A = biological target: T6, H77 E1E2 mutant W487A (Hepatitis C virus genotype 1a, H77, UniProt P27958 384-746)
T6 construct: Co-expressed with E1; P27958 is the whole polyprotein

H77 E1E2 mutant T416A = biological target: T7, H77 E1E2 mutant T416A (Hepatitis C virus genotype 1a, H77, UniProt P27958 384-746)
T7 construct: Co-expressed with E1; P27958 is the whole polyprotein

H77 E1E2 mutant W549A = biological target: T8, H77 E1E2 mutant W549A (Hepatitis C virus genotype 1a, H77, UniProt P27958 384-746)
T8 construct: Co-expressed with E1; P27958 is the whole polyprotein

H77 E1E2 mutant N415A = biological target: T9, H77 E1E2 mutant N415A (Hepatitis C virus genotype 1a, H77, UniProt P27958 384-746)
T9 construct: Co-expressed with E1; P27958 is the whole polyprotein

H77 E1E2 mutant W420A = biological target: T10, H77 E1E2 mutant W420A (Hepatitis C virus genotype 1a, H77, UniProt P27958 384-746)
T10 construct: Co-expressed with E1; P27958 is the whole polyprotein

H77 E1E2 mutant G418A = biological target: T11, H77 E1E2 mutant G418A (Hepatitis C virus genotype 1a, H77, UniProt P27958 384-746)
T11 construct: Co-expressed with E1; P27958 is the whole polyprotein

H77 E1E2 mutant D535A = biological target: T12, H77 E1E2 mutant D535A (Hepatitis C virus genotype 1a, H77, UniProt P27958 384-746)
T12 construct: Co-expressed with E1; P27958 is the whole polyprotein

H77 E1E2 mutant D533A = biological target: T13, H77 E1E2 mutant D533A (Hepatitis C virus genotype 1a, H77, UniProt P27958 384-746)
T13 construct: Co-expressed with E1; P27958 is the whole polyprotein

H77 E1E2 mutant P545A = biological target: T14, H77 E1E2 mutant P545A (Hepatitis C virus genotype 1a, H77, UniProt P27958 384-746)
T14 construct: Co-expressed with E1; P27958 is the whole polyprotein

H77 E1E2 mutant Q412A = biological target: T15, H77 E1E2 mutant Q412A (Hepatitis C virus genotype 1a, H77, UniProt P27958 384-746)
T15 construct: Co-expressed with E1; P27958 is the whole polyprotein

H77 E1E2 mutant R543A = biological target: T16, H77 E1E2 mutant R543A (Hepatitis C virus genotype 1a, H77, UniProt P27958 384-746)
T16 construct: Co-expressed with E1; P27958 is the whole polyprotein

H77 E1E2 mutant R483A = biological target: T17, H77 E1E2 mutant R483A (Hepatitis C virus genotype 1a, H77, UniProt P27958 384-746)
T17 construct: Co-expressed with E1; P27958 is the whole polyprotein

H77 E1E2 mutant N423A = biological target: T18, H77 E1E2 mutant N423A (Hepatitis C virus genotype 1a, H77, UniProt P27958 384-746)
T18 construct: Co-expressed with E1; P27958 is the whole polyprotein

H77 E1E2 mutant G547A = biological target: T19, H77 E1E2 mutant G547A (Hepatitis C virus genotype 1a, H77, UniProt P27958 384-746)
T19 construct: Co-expressed with E1; P27958 is the whole polyprotein

H77 E1E2 mutant S419A = biological target: T20, H77 E1E2 mutant S419A (Hepatitis C virus genotype 1a, H77, UniProt P27958 384-746)
T20 construct: Co-expressed with E1; P27958 is the whole polyprotein

H77 E1E2 mutant I422A = biological target: T21, H77 E1E2 mutant I422A (Hepatitis C virus genotype 1a, H77, UniProt P27958 384-746)
T21 construct: Co-expressed with E1; P27958 is the whole polyprotein

H77 E1E2 mutant Y527A = biological target: T22, H77 E1E2 mutant Y527A (Hepatitis C virus genotype 1a, H77, UniProt P27958 384-746)
T22 construct: Co-expressed with E1; P27958 is the whole polyprotein

H77 E1E2 mutant N540A = biological target: T23, H77 E1E2 mutant N540A (Hepatitis C virus genotype 1a, H77, UniProt P27958 384-746)
T23 construct: Co-expressed with E1; P27958 is the whole polyprotein

H77 E1E2 mutant P484A = biological target: T24, H77 E1E2 mutant P484A (Hepatitis C virus genotype 1a, H77, UniProt P27958 384-746)
T24 construct: Co-expressed with E1; P27958 is the whole polyprotein

H77 E1E2 mutant H421A = biological target: T25, H77 E1E2 mutant H421A (Hepatitis C virus genotype 1a, H77, UniProt P27958 384-746)
T25 construct: Co-expressed with E1; P27958 is the whole polyprotein

H77 E1E2 mutant P544A = biological target: T26, H77 E1E2 mutant P544A (Hepatitis C virus genotype 1a, H77, UniProt P27958 384-746)
T26 construct: Co-expressed with E1; P27958 is the whole polyprotein

[1] = biological target: H77 E1E2 mutant I413A (Hepatitis C virus genotype 1a, H77) (UniProt P27958)
[2] = biological target: H77 E1E2 mutant Y486A (Hepatitis C virus genotype 1a, H77) (UniProt P27958)
[3] = biological target: H77 E1E2 mutant G530A (Hepatitis C virus genotype 1a, H77) (UniProt P27958)
[4] = biological target: H77 E1E2 mutant T414A (Hepatitis C virus genotype 1a, H77) (UniProt P27958)

B1: Fab e20 (Fab, V domains shown)
VH: LLEQSGAEVKKPGSSVKVSCKASGDHYGINWVRQAPGQGLEWMGGIIPVFGTTTYAQKFQGRATITADDSTGTAFLELTRLTFDDTAVYFCATPHQLHVLRGGKALSPWDYWGQGT
VL: MAELTQSPATLSVSPGERATLSCRASQSVSSNLAWYQQKRGQAPSLLIYGTSTRATGIPARFSGSGSGTEFTLTISSLQSEDFAVYYCQQYNDWPSTFGQGT
notes: also called e20 antibody fragment
H77 E1E2 mutant N417A
  e20 binding activity (% of wild-type H77): 97 % of wild-type H77
H77 E1E2 mutant H488A
  e20 binding activity (% of wild-type H77): 100 % of wild-type H77
H77 E1E2 mutant N532A
  e20 binding activity (% of wild-type H77): 100 % of wild-type H77
H77 E1E2 mutant F550A
  e20 binding activity (% of wild-type H77): 94 % of wild-type H77
H77 E1E2 mutant T534A
  e20 binding activity (% of wild-type H77): 100 % of wild-type H77
H77 E1E2 mutant W487A
  e20 binding activity (% of wild-type H77): 100 % of wild-type H77
H77 E1E2 mutant T416A
  e20 binding activity (% of wild-type H77): 96 % of wild-type H77
H77 E1E2 mutant W549A
  e20 binding activity (% of wild-type H77): 96 % of wild-type H77
H77 E1E2 mutant N415A
  e20 binding activity (% of wild-type H77): 98 % of wild-type H77
H77 E1E2 mutant W420A
  e20 binding activity (% of wild-type H77): 97 % of wild-type H77
H77 E1E2 mutant G418A
  e20 binding activity (% of wild-type H77): 100 % of wild-type H77
H77 E1E2 mutant D535A
  e20 binding activity (% of wild-type H77): 10 % of wild-type H77
H77 E1E2 mutant D533A
  e20 binding activity (% of wild-type H77): 100 % of wild-type H77
H77 E1E2 mutant P545A
  e20 binding activity (% of wild-type H77): 97 % of wild-type H77
H77 E1E2 mutant Q412A
  e20 binding activity (% of wild-type H77): 100 % of wild-type H77
H77 E1E2 mutant R543A
  e20 binding activity (% of wild-type H77): 68 % of wild-type H77
H77 E1E2 mutant R483A
  e20 binding activity (% of wild-type H77): 100 % of wild-type H77
H77 E1E2 mutant N423A
  e20 binding activity (% of wild-type H77): 100 % of wild-type H77
H77 E1E2 mutant G547A
  e20 binding activity (% of wild-type H77): 98 % of wild-type H77
H77 E1E2 mutant S419A
  e20 binding activity (% of wild-type H77): 100 % of wild-type H77
H77 E1E2 mutant I422A
  e20 binding activity (% of wild-type H77): 100 % of wild-type H77
H77 E1E2 mutant Y527A
  e20 binding activity (% of wild-type H77): 92 % of wild-type H77
H77 E1E2 mutant N540A
  e20 binding activity (% of wild-type H77): 70 % of wild-type H77
H77 E1E2 mutant P484A
  e20 binding activity (% of wild-type H77): 100 % of wild-type H77
H77 E1E2 mutant H421A
  e20 binding activity (% of wild-type H77): 100 % of wild-type H77
H77 E1E2 mutant P544A
  e20 binding activity (% of wild-type H77): 72 % of wild-type H77
[1]
  e20 binding activity (% of wild-type H77) (% of wild-type H77): 100
[2]
  e20 binding activity (% of wild-type H77) (% of wild-type H77): 95
[3]
  e20 binding activity (% of wild-type H77) (% of wild-type H77): 3
[4]
  e20 binding activity (% of wild-type H77) (% of wild-type H77): 95
